Data reported in US12161729B2, “Methods and compositions for visualizing a ureter in a surgical procedure” (ALUME BIOSCIENCES, INC., priority 2021, dated 2024).
Like-named read-outs stand apart in the source and are kept apart here. Residues, ends and D or L forms follow the SMILES beside them. *: point of attachment. 5FAM = O=C1OC2(c3ccc(O)cc3Oc3cc(O)ccc32)c2ccc(C(=O)*)cc21; FAM = carboxyfluorescein

Columns and labels:
[1] = in vivo; cited from earlier work
[2] = test system: nerve; settings: cited from earlier work; for nerve detection following intravenous administration: rodent models
[3] = test system: rodent resected nerve tissues; settings: rodent tissue, topical administration; cited from earlier work
[4] = test system: human resected nerve tissues; settings: human tissue, topical administration; cited from earlier work
[5] = test system: ureter; experiment: Time course of ureter illumination in rodent models; assay type: in vivo; settings: rodent model
Method: (§1) A rodent model was to use to evaluate the dynamics of fluorescent visualization of 5-FAM-QVPWEEPYYVVKKSSGG-NH2 (HNP401-N-2 with GG linker; SEQ ID NO:747) following intravenous administration. The conjugate was administered in a wide range of amounts and fluorescence was detected using a customized microscope. […] Rather it reflects fluorescence of urine flowing down the ureter from the kidney to the bladder.
These include molecules consisting of related HNP401 peptides conjugated to FAM, as well as molecules consisting of related HNP401 peptides conjugated to other fluorescent moieties. In addition, the studies presented here allow concurrent visualization of nerves in conjunction with ureters.

[6] = test system: ureter; experiment: Fluorescent visualization of the ureter after intravenous administration, mouse model; assay type: in vivo
Method: FIG. 1: Bright field and fluorescence overlay image of a ureter in a living wild type mouse following intravenous administration of about 2000 nanomoles of a fluorescent conjugate (SEQ ID NO:747). Images were obtained 2 hours following administration using a customized fluorescence detection microscope. Left panel: White reflectance image. Right panel: fluorescence overlay.
as §1

[7] = Bioanalysis of fluorescent conjugate in the urine of surgery patients (LC-MS/MS); assay type: in vivo, human; settings: for Test Drug (ng/mL) in urine / level at 30 min after infusion: 500 mg intravenous; for level at 30 min after infusion: human, urine, iv, 500 mg, read-out: Test Drug (ng/mL) in urine
Method: Urine samples were collected 30 minutes before intravenous administration of 500 mg of parent test drug (corresponding to the fluorescent-conjugated peptide, SEQ ID NO:747), 30 minutes after infusion prior to head and neck surgery, and 22 hours later. The concentration of intact parent test drug was determined by liquid chromatography with tandem mass spectrometry (LC-MS/MS) using a qualified bioanalytical method. Also evaluated was the presence of metabolites M3-M8 (initially identified from in vitro studies) corresponding to shortened versions of the parent peptide conjugated to the fluorescent moiety.

[8] = test system: rat sciatic and prostate nerves; settings: several hours after intravenous administration; cited from earlier work

Row | Compound | serum half-life (as measured by serum fluorescence) [1] | half-life of nerve fluorescence ([2]; in vivo) | persistence of fluorescence in tissues ([2]; in vivo) | nerve detection following intravenous administration [2] | fluorescent labeling of resected nerve tissues [3] | fluorescent labeling of resected nerve tissues [4] | time at which fluorescent visualization of the ureter was first observed following conjugate administration ([5]; early observation) | time up to which fluorescent visualization of the ureter was observed following conjugate administration ([5]; extended time course) | ureter illumination (fluorescence) ([6]; 2 hours following intravenous administration of about 2000 nanomoles (~200 mg/kg)) | ureter illumination (fluorescence) ([6]; intravenous, 100 nanomoles to 2000 nanomoles (~10 mg/kg to ~200 mg/kg)) | detection in urine, number of subjects ([7]; 30-minute time-point, test drug or fluorescent metabolites, five subjects evaluated) | Test Drug (ng/mL) in urine ([7]; Subject 1, 30 min after infusion) | Test Drug (ng/mL) in urine ([7]; Subject 2, 22 hours) | Test Drug (ng/mL) in urine ([7]; Subject 3, 22 hours) | Test Drug (ng/mL) in urine ([7]; Subject 4, 30 min after infusion) | level at 30 min after infusion ([7]; Subject 2, 30 min after infusion) [ng/mL] | level at 30 min after infusion ([7]; Subject 3, 30 min after infusion) [ng/mL] | level at 30 min after infusion ([7]; Subject 5, 30 min after infusion) [ng/mL] | half-life in the blood [1] [min] | fluorescence in rat sciatic and prostate nerves [8]
1 | FAM-NP41: carboxyfluorescein (FAM) coupled to the C-terminal lysine of acetylated NP41 (Ac-SHSNTQTLAKAPEHTGK) via a lysinamide linkage (Ac-SHSNTQTLAKAPEHTGK(FAM)-NH2) [reference compound] | about ten | about 50 minutes | persist at a low level in tissues for hours | sensitive nerve detection | fluorescent labeling | fluorescent labeling | – | – | – | – | – | – | – | – | – | – | – | – | – | –
2 | CC(C)[C@H](NC(=O)[C@H](Cc1ccc(O)cc1)NC(=O)[C@H](Cc1ccc(O)cc1)NC(=O)[C@@H]1CCCN1C(=O)[C@H](CCC(=O)O)NC(=O)[C@H](CCC(=O)O)NC(=O)[C@H](Cc1c[nH]c2ccccc12)NC(=O)[C@@H]1CCCN1C(=O)[C@@H](NC(=O)[C@H](CCC(N)=O)NC(=O)c1ccc2c(c1)C(=O)OC21c2ccc(O)cc2Oc2cc(O)ccc21)C(C)C)C(=O)N[C@H](C(=O)N[C@@H](CCCCN)C(=O)N[C@@H](CCCCN)C(=O)N[C@@H](CO)C(=O)N[C@@H](CO)C(=O)NCC(=O)NCC(N)=O)C(C)C [SEQ ID NO:747, 5-FAM-QVPWEEPYYVVKKSSGG-NH2] (5FAM-QVPWEEPYYVVKKSSGG-NH2) | – | – | – | – | – | – | less than 1 hour | at least 6 hours | readily illuminated | revealed ureter illumination | detected in four of five subjects | BQL* (BQL: Below Quantitation Limit (10 ng/ml)) | BQL (BQL: Below Quantitation Limit (10 ng/ml)) | BQL (BQL: Below Quantitation Limit (10 ng/ml)) | BQL (BQL: Below Quantitation Limit (10 ng/ml)) | 11.5 | 19 | 10.1 | – | –
3 | FAM-HNP401: FAM conjugated to the C-terminal cysteine of acetylated HNP401 with GCC linker (Ac-SGQVPWEEPYYVVKKSSGGC-CONH2) (Ac-SGQVPWEEPYYVVKKSSGGC(FAM)-NH2) | – | – | – | sensitive nerve detection | fluorescent labeling | fluorescent labeling | – | – | – | – | – | – | – | – | – | – | – | – | 15 | observed
